For experiment [1], the target named is T1, human CD8 on CD8+ cells of human PBMCs (human, UniProt P01732 22-235).
T1 construct: whole, on cells; Immunization and panning used recombinant hCD8a (Ser 22-Asp 182, His tag); The flow cytometry used native CD8 on PBMCs; also called hCD8; hCD8a
Put plainly: phage display selection on hCD8a with EDTA elution, then clone screening. As to the method:
Flow cytometry results of screened clones of library 2a from EDTA eluates after panning cycle IIb with triple depletion of Ca2+ independent hCD8a binders. After exclusion of dead cells and cell debris CD8+ cells were identified as a CD3+/CD4− cell population. hCD8-specific Fabs were detected by anti-polyhistidine-PE (anti-HIS-PE). Mean fluorescence intensities (MFI) of anti-HIS-PE staining were plotted to evaluate the influence of 10 mM EDTA. 75_A1 (uninoculated medium) and 75_C1 (anti-MUC1 scFv expressing clone) were negative controls, while 75_B1 (CD8 BW135/80) served as positive control. FIG. 7: MFI before and after addition of EDTA. FIG. 8: MFI ratio (−)EDTA/(+)EDTA. FIG. 9: Dot plots of clone KRR75_G1 before and after the addition of 10 mM EDTA.
Variations in panning process were tested to direct the selection towards Ca2+ dependent binding. […]
Clones generated by different selection procedures and stages were characterized upon hCD8 specificity and potential Ca2+ dependent binding. […] Supernatants of these cultures were analyzed for the presence hCD8 specific Fabs using a flow cytometric staining assay in the Ca2+ containing buffer HBSS (Hank's balanced salt solution) +0.5% BSA. […] Bound Fabs were detected via the polyhistidine tag of the Fab and an anti-polyhistidine tag-fluorochrome conjugate. […]

Experiment [2] concerns the target T1, human CD8 on CD8+ cells of human PBMCs. Put plainly: flow cytometry on human CD8+ cells, before and after EDTA. How it is done:
FIGS. 10, 11, and 12 show flow cytometry results of screened clones after panning cycle IIIb. Flow cytometry results of screened clones (see 4.4.2.2) of library 1a and 2a from EDTA eluates after panning cycle IIIb. After exclusion of dead cells and cell debris CD8+ cells were identified as a CD3+/CD4− cell population. hCD8 specific Fabs were detected by anti-His-PE. Mean fluorescence intensities (MFI) of anti-His-PE staining were plotted to evaluate the influence of 10 mM EDTA on staining with certain Fab clones. 77_A1 (uninoculated medium) and 77_C1 (anti-MUC1 scFv expressing clone) were negative controls, while 77_B1 (CD8 BW135/80) served as positive control for hCD8 staining. FIG. 10: MFI before and after addition of EDTA. FIG. 11: MFI ratio (−)EDTA/(+)EDTA. FIG. 12: Dot plot of clone KRR77_D1 before and after the addition of 10 mM EDTA.
Clones generated by different selection procedures and stages were characterized upon hCD8 specificity and potential Ca2+ dependent binding. Therefore, Fab expressions of single clones were performed in a microtiter plate format (150 μL). Supernatants of these cultures were analyzed for the presence hCD8 specific Fabs using a flow cytometric staining assay in the Ca2+ containing buffer HBSS (Hank's balanced salt solution) +0.5% BSA. […] Bound Fabs were detected via the polyhistidine tag of the Fab and an anti-polyhistidine tag-fluorochrome conjugate. […]

T1 sequence (P01732 22-235): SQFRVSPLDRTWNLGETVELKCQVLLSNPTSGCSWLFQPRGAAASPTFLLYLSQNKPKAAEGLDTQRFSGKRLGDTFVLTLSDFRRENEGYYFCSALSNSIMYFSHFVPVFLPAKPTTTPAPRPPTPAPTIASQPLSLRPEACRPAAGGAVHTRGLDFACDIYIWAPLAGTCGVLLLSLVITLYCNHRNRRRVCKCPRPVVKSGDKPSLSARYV

B1: chimeric recombinant Fab CD8 KRR75_G1 (Fab, V domains shown)
VH: EVQLQQSGPELVKPGASVKMSCKASGYTFTDYVISWMKQRTGQGLEWIGEIYPGSGSDYYNEKFKGKATLTADKSSNTAYMQLSSLTSEDSAVYFCARWGITDYFDVWGAGTTVTVSS
VL: ETTVTQSPASLSMAIGEKVTIRCITSTDIDDDMNWYQQKPGEPPKLLISEGNTLRPGVPSRFSSSGYGTDFVFTIENMLSEDVADYYCLQSDNLPFTFGSGTKLEIK
notes: also called clone KRR75_G1
Turning to B1, the binding result in experiment [1] is given as “binds”.

B2: chimeric recombinant Fab CD8 KRR77_D1 (Fab, V domains shown)
VH: QVQLKESGPGLVQPSQSLSITCTVSGFSLTSYGVHWVRQSPGKGLEWLGVIWRGGSTDYNAAFMSRLSITKDNSKSQVFFKMNSLQADDTAIYYCAKNSITPFAYWGQGTLVTVSA
VL: B1 VL
notes: also called clone KRR77_D1
As for B2, the binding result in experiment [2] is recorded as “binds”.
